The data set deals with the molecule itself. Put plainly: cryo-EM structure.

What is called stoichiometry N is the number of molecules, sites or subunits per partner or assembly.

B1: L-protein (BchL homodimer), electron donor component of Rhodobacter sphaeroides DPOR (enzyme)
chain: MSPKDLTIPTGADGEGSVQVHLDEADKITGAKVFAVYGKGGIGKSTTSSNLSAAFSILGKRVLQIGCDPKHDSTFTLTGSLVPTVIDVLKDVDFHPEELRPEDFVFEGFNGVMCVEAGGPPAGTGCGGYVVGQTVKLLKQHHLLDDTDVVIFDVLGDVVCGGFAAPLQHADQAVVVTANDFDSIYAMNRIIAAVQAKSKNYKVRLAGCVANRSRATDEVDRFCKETNFRRLAHMPDLDAIRRSRLKKKTLFEMDEDQDVLAARAEYIRLAESLWRGLDPIDPHSLPDRDIFELLGFD
As for B1, the “stoichiometry N” value stood at 2.
